# Assay results as given in patent US20120073001A1, “METHODS AND COMPOSITIONS FOR […] OR […] […]” (THE JOHNS HOPKINS UNIVERSITY, published 2012).
# B1: BAM8-22 (peptide)
# peptide: VGRPEWWMDYQKRYG
# Target: T1, mouse MrgprC11, endogenous in wild-type DRG neurons (mouse)
# T1 chain: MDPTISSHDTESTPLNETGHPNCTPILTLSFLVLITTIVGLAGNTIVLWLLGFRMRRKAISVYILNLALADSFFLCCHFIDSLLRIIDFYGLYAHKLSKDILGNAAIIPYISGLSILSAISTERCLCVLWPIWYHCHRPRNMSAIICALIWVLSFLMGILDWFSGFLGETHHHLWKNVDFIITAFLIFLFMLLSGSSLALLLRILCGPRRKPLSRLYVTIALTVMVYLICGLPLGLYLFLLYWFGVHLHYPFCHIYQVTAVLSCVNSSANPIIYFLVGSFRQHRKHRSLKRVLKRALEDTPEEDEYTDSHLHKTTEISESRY
# Test: cell-based or functional assay
binder,measurement,value
B1,"increased [Ca2+]i, calcium imaging of WT and Mrgpr-cluster deletion DRG neurons",3.6 % of WT DRG neurons
